# Patent US20210388110A1 (published 2021)
# Target: T1, soluble human GPC3 (human, UniProt P51654 25-563, limits assumed)
# T1 construct: soluble human GPC3 as analyte; also called glypican 3
# Assay: SPR (Biacore), soluble human GPC3
# T1 sequence (P51654 other isoform, or with tags, fused parts or gaps limits assumed, form in doubt): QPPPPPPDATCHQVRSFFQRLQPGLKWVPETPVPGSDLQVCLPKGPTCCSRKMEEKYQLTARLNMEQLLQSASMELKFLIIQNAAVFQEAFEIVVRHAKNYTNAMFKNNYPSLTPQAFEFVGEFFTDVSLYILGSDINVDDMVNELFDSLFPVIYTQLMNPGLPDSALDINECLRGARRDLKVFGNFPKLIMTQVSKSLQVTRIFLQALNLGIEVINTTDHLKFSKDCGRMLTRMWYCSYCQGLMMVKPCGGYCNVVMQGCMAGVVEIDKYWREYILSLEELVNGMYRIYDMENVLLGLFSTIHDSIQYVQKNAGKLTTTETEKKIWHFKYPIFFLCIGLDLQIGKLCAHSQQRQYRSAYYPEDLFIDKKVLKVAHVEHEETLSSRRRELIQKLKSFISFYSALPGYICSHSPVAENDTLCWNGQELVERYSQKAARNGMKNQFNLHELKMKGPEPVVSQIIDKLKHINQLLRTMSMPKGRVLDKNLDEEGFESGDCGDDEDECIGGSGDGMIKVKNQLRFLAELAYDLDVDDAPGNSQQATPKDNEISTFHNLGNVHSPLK
row,Binder,Kd
1,"H0610-G1dh/none-Hi-Kn010G3/L0204-k0 (antibody, human IgG1, kappa, single-arm (one Fab)) heavy: not shown EPKSSDKTHTCPPCPAPELLGGPSVFLFPPKPKDTLMISRTPEVTCVVVDVSHEDPEVKFNWYVDGVEVHNAKTKPREEQYNSTYRVVSVLTVLHQDWLNGKEYKCKVSNKALPAPIEKTISKAKGQPREPQVCTLPPSRDELTKNQVSLWCLVKGFYPSDIAVEWESNGQPENNYKTTPPVLDSDGSFFLYSKLTVDKSRWQQGNVFSCSVMHEALHNRYTQKSLSLSP light: DIVMTQSPLSLPVTPGEPASISCRSSQSPVHSNRNTYLHWYQQKPGQAPRLLIYKVSNRFRGVPDRFSGSGSGTDFTLKISRVEAEDVGVYYCGQGTQVPYTFGQGTKLEIKRTVAAPSVFIFPPSDEQLKSGTASVVCLLNNFYPREAKVQWKVDNALQSGNSQESVTEQDSKDSTYSLSSTLTLSKADYEKHKVYACEVTHQGLSSPVTKSFNRGEC",0.727 nM
2,"H0610-G1dh/none-Hi-Kn010G3/L0206-k0 (antibody, human IgG1, kappa, single-arm (one Fab)) heavy: not shown EPKSSDKTHTCPPCPAPELLGGPSVFLFPPKPKDTLMISRTPEVTCVVVDVSHEDPEVKFNWYVDGVEVHNAKTKPREEQYNSTYRVVSVLTVLHQDWLNGKEYKCKVSNKALPAPIEKTISKAKGQPREPQVCTLPPSRDELTKNQVSLWCLVKGFYPSDIAVEWESNGQPENNYKTTPPVLDSDGSFFLYSKLTVDKSRWQQGNVFSCSVMHEALHNRYTQKSLSLSP light: DIVMTQSPLSLPVTPGEPASISCRSSQSPVHSNRNTYLHWYQQKPGQAPRLLIYKVSNRFSGVPDRFSGSGSGTDFTLKISRVEAEDVGVYYCYQGTQVPYTFGQGTKLEIKRTVAAPSVFIFPPSDEQLKSGTASVVCLLNNFYPREAKVQWKVDNALQSGNSQESVTEQDSKDSTYSLSSTLTLSKADYEKHKVYACEVTHQGLSSPVTKSFNRGEC",0.865 nM
3,"H0610-G1dh/none-Hi-Kn010G3/L0209-k0 (antibody, human IgG1, kappa, single-arm (one Fab)) heavy: not shown EPKSSDKTHTCPPCPAPELLGGPSVFLFPPKPKDTLMISRTPEVTCVVVDVSHEDPEVKFNWYVDGVEVHNAKTKPREEQYNSTYRVVSVLTVLHQDWLNGKEYKCKVSNKALPAPIEKTISKAKGQPREPQVCTLPPSRDELTKNQVSLWCLVKGFYPSDIAVEWESNGQPENNYKTTPPVLDSDGSFFLYSKLTVDKSRWQQGNVFSCSVMHEALHNRYTQKSLSLSP light: DIVMTQSPLSLPVTPGEPASISCRSSQSPVHSNRNTYIHWYQQKPGQAPRLLIYKVSNRFSGVPDRFSGSGSGTDFTLKISRVEAEDVGVYYCYQGTQVPYTFGQGTKLEIKRTVAAPSVFIFPPSDEQLKSGTASVVCLLNNFYPREAKVQWKVDNALQSGNSQESVTEQDSKDSTYSLSSTLTLSKADYEKHKVYACEVTHQGLSSPVTKSFNRGEC",1.12 nM
4,"H0610-G1dh/none-Hi-Kn010G3/L0205-k0 (antibody, human IgG1, kappa, single-arm (one Fab)) heavy: not shown EPKSSDKTHTCPPCPAPELLGGPSVFLFPPKPKDTLMISRTPEVTCVVVDVSHEDPEVKFNWYVDGVEVHNAKTKPREEQYNSTYRVVSVLTVLHQDWLNGKEYKCKVSNKALPAPIEKTISKAKGQPREPQVCTLPPSRDELTKNQVSLWCLVKGFYPSDIAVEWESNGQPENNYKTTPPVLDSDGSFFLYSKLTVDKSRWQQGNVFSCSVMHEALHNRYTQKSLSLSP light: DIVMTQSPLSLPVTPGEPASISCRSSQSPVHSNRNTYLHWYQQKPGQAPRLLIYKVSNRFWGVPDRFSGSGSGTDFTLKISRVEAEDVGVYYCGQGTQVPYTFGQGTKLEIKRTVAAPSVFIFPPSDEQLKSGTASVVCLLNNFYPREAKVQWKVDNALQSGNSQESVTEQDSKDSTYSLSSTLTLSKADYEKHKVYACEVTHQGLSSPVTKSFNRGEC",1.01 nM
5,"H0610-G1dh/none-Hi-Kn010G3/L0211-k0 (antibody, human IgG1, kappa, single-arm (one Fab)) heavy: not shown EPKSSDKTHTCPPCPAPELLGGPSVFLFPPKPKDTLMISRTPEVTCVVVDVSHEDPEVKFNWYVDGVEVHNAKTKPREEQYNSTYRVVSVLTVLHQDWLNGKEYKCKVSNKALPAPIEKTISKAKGQPREPQVCTLPPSRDELTKNQVSLWCLVKGFYPSDIAVEWESNGQPENNYKTTPPVLDSDGSFFLYSKLTVDKSRWQQGNVFSCSVMHEALHNRYTQKSLSLSP light: DIVMTQSPLSLPVTPGEPASISCRSSQPPVHSNRNTYLHWYQQKPGQAPRLLIYKVSNRFSGVPDRFSGSGSGTDFTLKISRVEAEDVGVYYCYQGTQVPYTFGQGTKLEIKRTVAAPSVFIFPPSDEQLKSGTASVVCLLNNFYPREAKVQWKVDNALQSGNSQESVTEQDSKDSTYSLSSTLTLSKADYEKHKVYACEVTHQGLSSPVTKSFNRGEC",0.647 nM
6,"H0610-G1dh/none-Hi-Kn010G3/L0208-k0 (antibody, human IgG1, kappa, single-arm (one Fab)) heavy: not shown EPKSSDKTHTCPPCPAPELLGGPSVFLFPPKPKDTLMISRTPEVTCVVVDVSHEDPEVKFNWYVDGVEVHNAKTKPREEQYNSTYRVVSVLTVLHQDWLNGKEYKCKVSNKALPAPIEKTISKAKGQPREPQVCTLPPSRDELTKNQVSLWCLVKGFYPSDIAVEWESNGQPENNYKTTPPVLDSDGSFFLYSKLTVDKSRWQQGNVFSCSVMHEALHNRYTQKSLSLSP light: DIVMTQSPLSLPVTPGEPASISCRSSQSPVHSNRNTYLHWYQQKPGQAPRLLIYKVSNRFWGVPDRFSGSGSGTDFTLKISRVEAEDVGVYYCYQGTQVPYTFGQGTKLEIKRTVAAPSVFIFPPSDEQLKSGTASVVCLLNNFYPREAKVQWKVDNALQSGNSQESVTEQDSKDSTYSLSSTLTLSKADYEKHKVYACEVTHQGLSSPVTKSFNRGEC",0.53 nM

# Continued, values first:
row,Kd,Binder
1,0.994 nM,"H0610-G1dh/none-Hi-Kn010G3/L0212-k0 (antibody, human IgG1, kappa, single-arm (one Fab)) heavy: not shown EPKSSDKTHTCPPCPAPELLGGPSVFLFPPKPKDTLMISRTPEVTCVVVDVSHEDPEVKFNWYVDGVEVHNAKTKPREEQYNSTYRVVSVLTVLHQDWLNGKEYKCKVSNKALPAPIEKTISKAKGQPREPQVCTLPPSRDELTKNQVSLWCLVKGFYPSDIAVEWESNGQPENNYKTTPPVLDSDGSFFLYSKLTVDKSRWQQGNVFSCSVMHEALHNRYTQKSLSLSP light: DIVMTQSPLSLPVTPGEPASISCRPSQSPVHSNRNTYLHWYQQKPGQAPRLLIYKVSNRFSGVPDRFSGSGSGTDFTLKISRVEAEDVGVYYCYQGTQVPYTFGQGTKLEIKRTVAAPSVFIFPPSDEQLKSGTASVVCLLNNFYPREAKVQWKVDNALQSGNSQESVTEQDSKDSTYSLSSTLTLSKADYEKHKVYACEVTHQGLSSPVTKSFNRGEC"
2,1.25 nM,"H0610-G1dh/none-Hi-Kn010G3/L0213-k0 (antibody, human IgG1, kappa, single-arm (one Fab)) heavy: not shown EPKSSDKTHTCPPCPAPELLGGPSVFLFPPKPKDTLMISRTPEVTCVVVDVSHEDPEVKFNWYVDGVEVHNAKTKPREEQYNSTYRVVSVLTVLHQDWLNGKEYKCKVSNKALPAPIEKTISKAKGQPREPQVCTLPPSRDELTKNQVSLWCLVKGFYPSDIAVEWESNGQPENNYKTTPPVLDSDGSFFLYSKLTVDKSRWQQGNVFSCSVMHEALHNRYTQKSLSLSP light: DIVMTQSPLSLPVTPGEPASISCRSSQSPVHSNRNTYIHWYQQKPGQAPRLLIYKVSNRFRGVPDRFSGSGSGTDFTLKISRVEAEDVGVYYCGQGTQVPYTFGQGTKLEIKRTVAAPSVFIFPPSDEQLKSGTASVVCLLNNFYPREAKVQWKVDNALQSGNSQESVTEQDSKDSTYSLSSTLTLSKADYEKHKVYACEVTHQGLSSPVTKSFNRGEC"
3,1.79 nM,"H0610-G1dh/none-Hi-Kn010G3/L0217-k0 (antibody, human IgG1, kappa, single-arm (one Fab)) heavy: not shown EPKSSDKTHTCPPCPAPELLGGPSVFLFPPKPKDTLMISRTPEVTCVVVDVSHEDPEVKFNWYVDGVEVHNAKTKPREEQYNSTYRVVSVLTVLHQDWLNGKEYKCKVSNKALPAPIEKTISKAKGQPREPQVCTLPPSRDELTKNQVSLWCLVKGFYPSDIAVEWESNGQPENNYKTTPPVLDSDGSFFLYSKLTVDKSRWQQGNVFSCSVMHEALHNRYTQKSLSLSP light: DIVMTQSPLSLPVTPGEPASISCRPSQSLVHSNRNTYLHWYQQKPGQAPRLLIYKVSNRFRGVPDRFSGSGSGTDFTLKISRVEAEDVGVYYCGQGTQVPYTFGQGTKLEIKRTVAAPSVFIFPPSDEQLKSGTASVVCLLNNFYPREAKVQWKVDNALQSGNSQESVTEQDSKDSTYSLSSTLTLSKADYEKHKVYACEVTHQGLSSPVTKSFNRGEC"
4,1.86 nM,"H0610-G1dh/none-Hi-Kn010G3/L0216-k0 (antibody, human IgG1, kappa, single-arm (one Fab)) heavy: not shown EPKSSDKTHTCPPCPAPELLGGPSVFLFPPKPKDTLMISRTPEVTCVVVDVSHEDPEVKFNWYVDGVEVHNAKTKPREEQYNSTYRVVSVLTVLHQDWLNGKEYKCKVSNKALPAPIEKTISKAKGQPREPQVCTLPPSRDELTKNQVSLWCLVKGFYPSDIAVEWESNGQPENNYKTTPPVLDSDGSFFLYSKLTVDKSRWQQGNVFSCSVMHEALHNRYTQKSLSLSP light: DIVMTQSPLSLPVTPGEPASISCRSSQPLVHSNRNTYLHWYQQKPGQAPRLLIYKVSNRFRGVPDRFSGSGSGTDFTLKISRVEAEDVGVYYCGQGTQVPYTFGQGTKLEIKRTVAAPSVFIFPPSDEQLKSGTASVVCLLNNFYPREAKVQWKVDNALQSGNSQESVTEQDSKDSTYSLSSTLTLSKADYEKHKVYACEVTHQGLSSPVTKSFNRGEC"
5,0.657 nM,"H0610-G1dh/none-Hi-Kn010G3/L0214-k0 (antibody, human IgG1, kappa, single-arm (one Fab)) heavy: not shown EPKSSDKTHTCPPCPAPELLGGPSVFLFPPKPKDTLMISRTPEVTCVVVDVSHEDPEVKFNWYVDGVEVHNAKTKPREEQYNSTYRVVSVLTVLHQDWLNGKEYKCKVSNKALPAPIEKTISKAKGQPREPQVCTLPPSRDELTKNQVSLWCLVKGFYPSDIAVEWESNGQPENNYKTTPPVLDSDGSFFLYSKLTVDKSRWQQGNVFSCSVMHEALHNRYTQKSLSLSP light: DIVMTQSPLSLPVTPGEPASISCRSSQPPVHSNRNTYLHWYQQKPGQAPRLLIYKVSNRFRGVPDRFSGSGSGTDFTLKISRVEAEDVGVYYCGQGTQVPYTFGQGTKLEIKRTVAAPSVFIFPPSDEQLKSGTASVVCLLNNFYPREAKVQWKVDNALQSGNSQESVTEQDSKDSTYSLSSTLTLSKADYEKHKVYACEVTHQGLSSPVTKSFNRGEC"
6,1.64 nM,"H0610-G1dh/none-Hi-Kn010G3/L0215-k0 (antibody, human IgG1, kappa, single-arm (one Fab)) heavy: not shown EPKSSDKTHTCPPCPAPELLGGPSVFLFPPKPKDTLMISRTPEVTCVVVDVSHEDPEVKFNWYVDGVEVHNAKTKPREEQYNSTYRVVSVLTVLHQDWLNGKEYKCKVSNKALPAPIEKTISKAKGQPREPQVCTLPPSRDELTKNQVSLWCLVKGFYPSDIAVEWESNGQPENNYKTTPPVLDSDGSFFLYSKLTVDKSRWQQGNVFSCSVMHEALHNRYTQKSLSLSP light: DIVMTQSPLSLPVTPGEPASISCRSSQPPVHSNRNTYIHWYQQKPGQAPRLLIYKVSNRFSGVPDRFSGSGSGTDFTLKISRVEAEDVGVYYCGQGTQVPYTFGQGTKLEIKRTVAAPSVFIFPPSDEQLKSGTASVVCLLNNFYPREAKVQWKVDNALQSGNSQESVTEQDSKDSTYSLSSTLTLSKADYEKHKVYACEVTHQGLSSPVTKSFNRGEC"
7,1.99 nM,"H0610-G1dh/none-Hi-Kn010G3/L0218-k0 (antibody, human IgG1, kappa, single-arm (one Fab)) heavy: not shown EPKSSDKTHTCPPCPAPELLGGPSVFLFPPKPKDTLMISRTPEVTCVVVDVSHEDPEVKFNWYVDGVEVHNAKTKPREEQYNSTYRVVSVLTVLHQDWLNGKEYKCKVSNKALPAPIEKTISKAKGQPREPQVCTLPPSRDELTKNQVSLWCLVKGFYPSDIAVEWESNGQPENNYKTTPPVLDSDGSFFLYSKLTVDKSRWQQGNVFSCSVMHEALHNRYTQKSLSLSP light: DIVMTQSPLSLPVTPGEPASISCRSSQSLVHSNRNTYLHWYQQKPGQAPRLLIYKVSNRFRGVPDRFSGSGSGTDFTLKISRVEAEDVGVYYCYQGTQVPYTFGQGTKLEIKRTVAAPSVFIFPPSDEQLKSGTASVVCLLNNFYPREAKVQWKVDNALQSGNSQESVTEQDSKDSTYSLSSTLTLSKADYEKHKVYACEVTHQGLSSPVTKSFNRGEC"
